This assay deals with T1, Human EphA2 (Ecto) (Human, UniProt P29317 24-537).
T1 construct: extracellular domain
As to the kind of experiment: FP competition; competitor Compound 18.

Among the data in patent US20200338203A1 (Bicycle, published 2020) are Ki values, retold here.

As a reminder, the Ki is the equilibrium dissociation constant of an inhibitor or competing ligand from its target.

Numbered stars: 1 amine (or outer) side, 2 acyl side, 3 side chain; on linkers, the order of the positions; unused ones are H or OH. Bridge positions count the residues as written; N and C are the ends. Square brackets hold non-standard residues; d marks the D form. Ends that are not written are not given here. 1Nal = N[C@@H](Cc1cccc2ccccc12)C(=O)O; TBMB = c1c(C[*:1])cc(C[*:3])cc1C[*:2]; Gly(cPent) = N[C@H](C(=O)O)C1CCCC1; hArg = N=C(N)NCCCC[C@H](N)C(=O)O; Tle = CC(C)(C)[C@H](N)C(=O)O; Aib = CC(C)(N)C(=O)O; βAla = NCCC(=O)O; Sar = CNCC(=O)O

T1 sequence (P29317 24-537): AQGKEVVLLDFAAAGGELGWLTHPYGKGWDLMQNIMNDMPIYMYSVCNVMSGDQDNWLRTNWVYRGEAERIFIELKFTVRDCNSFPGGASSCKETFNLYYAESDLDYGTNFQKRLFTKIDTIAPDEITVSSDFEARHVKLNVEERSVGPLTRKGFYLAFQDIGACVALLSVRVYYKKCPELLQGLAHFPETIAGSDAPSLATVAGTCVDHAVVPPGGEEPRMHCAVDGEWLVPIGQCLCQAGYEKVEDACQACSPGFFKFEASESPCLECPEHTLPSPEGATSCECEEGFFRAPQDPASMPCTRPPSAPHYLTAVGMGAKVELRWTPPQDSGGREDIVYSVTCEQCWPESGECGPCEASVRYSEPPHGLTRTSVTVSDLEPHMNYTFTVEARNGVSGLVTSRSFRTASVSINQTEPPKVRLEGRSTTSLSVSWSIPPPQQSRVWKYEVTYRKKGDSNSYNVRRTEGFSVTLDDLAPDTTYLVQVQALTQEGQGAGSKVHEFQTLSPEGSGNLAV

In turn, [βAla][Sar][Sar][Sar][Sar][Sar][Sar][Sar][Sar][Sar][Sar]H[dD]VPCP[1Nal]G[Aib]F[1Nal]CP[Tle]N[hArg][Aib][dD]C (linker 16-23-30 via TBMB) [Compound 259] came in with a Ki of 0.91 nM.
Take {Ac-βAla}-[Sar][Sar][Sar][Sar][Sar][Sar][Sar][Sar][Sar][Sar]H[dD]VPC[Aib][1Nal]G[Aib]F[1Nal]CP[Tle]NR[Aib][dD]C (linker 15-22-29 via TBMB) [Compound 241]: the Ki was 2.98 nM.
As for [βAla][Sar][Sar][Sar][Sar][Sar][Sar][Sar][Sar][Sar][Sar]H[dD]VPCP[1Nal]G[Aib][hArg][1Nal]CP[Tle]N[hArg]P[dD]C (linker 16-23-30 via TBMB) [Compound 251], the figure is 1.93 nM.
As for [βAla][Sar][Sar][Sar][Sar][Sar][Sar][Sar][Sar][Sar][Sar]H[dD][Gly(cPent)]PCP[1Nal]G[Aib]F[1Nal]CP[Tle]NR[Aib]GC (linker 16-23-30 via TBMB) [Compound 278], the figure is 0.46 nM; as for Ac-[Sar][Sar]A[dH]DVPCP[1Nal]G[Aib]F[1Nal]CP[Tle]NR[Aib]GC (linker 8-15-22 via TBMB) [Compound 232], 0.9 nM; as for [βAla][Sar][Sar][Sar][Sar][Sar][Sar][Sar][Sar][Sar][Sar]H[dD]VPCP[1Nal]G[Aib][hArg][1Nal]CP[Tle]NR[Aib]GC (linker 16-23-30 via TBMB) [Compound 249], 1.38 nM.
Take [dD]VTCP[1Nal]G[Aib]F[1Nal]CP[Tle]NR[Aib]GC (linker 4-11-18 via TBMB) [Compound 186]: the Ki came out at 1.34 nM.
To [βAla][Sar][Sar][Sar][Sar][Sar][Sar][Sar][Sar][Sar][Sar]H[dD][Gly(cPent)]TCP[1Nal]G[Aib]F[1Nal]CP[Tle]N[hArg]P[dD]C (linker 16-23-30 via TBMB) [Compound 280] belongs 0.64 nM; to Ac-[Sar][Sar]A[dH]DVPCP[1Nal]G[Aib]F[1Nal]CP[Tle]N[hArg]PGC (linker 8-15-22 via TBMB) [Compound 231], 1.93 nM; to [βAla][Sar][Sar][Sar][Sar][Sar][Sar][Sar][Sar][Sar][Sar]H[dD]VPC[dA][1Nal]G[Aib]F[1Nal]CP[Tle]N[hArg]P[dD]C (linker 16-23-30 via TBMB) [Compound 248], 28.4 nM.
Take [βAla][Sar][Sar][Sar][Sar][Sar][Sar][Sar][Sar][Sar][Sar]H[dD]VPC[Aib][1Nal]GP[hArg][1Nal]CP[Tle]NR[Aib]GC (linker 16-23-30 via TBMB) [Compound 243]: the Ki worked out at 2.83 nM.
As for {Ac-βAla}-[Sar][Sar][Sar][Sar][Sar][Sar][Sar][Sar][Sar][Sar]H[dD]VPC[Aib][1Nal]G[Aib]F[1Nal]CP[Tle]N[hArg]P[dD]C (linker 15-22-29 via TBMB) [Compound 237], the figure is 2.4 nM; as for [βAla][Sar][Sar][Sar][Sar][Sar][Sar][Sar][Sar][Sar][Sar]H[dD]VPC[Aib][1Nal]G[Aib]F[1Nal]CP[Tle]N[hArg][Aib][dD]C (linker 16-23-30 via TBMB) [Compound 238], 2.83 nM.
[βAla][Sar][Sar][Sar][Sar][Sar][Sar][Sar][Sar][Sar][Sar]H[dD]VPC[Aib][1Nal]GP[hArg][1Nal]CP[Tle]N[hArg]P[dD]C (linker 16-23-30 via TBMB) [Compound 244]: the Ki is 2.8 nM.
As for [βAla][Sar][Sar][Sar][Sar][Sar][Sar][Sar][Sar][Sar][Sar]H[dD]VPC[Aib][1Nal]G[Aib]FWCP[Tle]N[hArg]P[dD]C (linker 16-23-30 via TBMB) [Compound 242], the figure is 7.77 nM; as for [βAla][Sar][Sar][Sar][Sar][Sar][Sar][Sar][Sar][Sar][Sar]H[dD]VPC[Aib][1Nal]G[Aib]F[1Nal]CP[Tle]NR[Aib]GC (linker 16-23-30 via TBMB) [Compound 239], 4.91 nM.
In turn, [βAla][Sar][Sar][Sar][Sar][Sar][Sar][Sar][Sar][Sar][Sar]H[dD]VPCP[1Nal]G[Aib]FWCP[Tle]N[hArg]P[dD]C (linker 16-23-30 via TBMB) [Compound 265] registered a Ki of 1.55 nM.
For [βAla][Sar][Sar][Sar][Sar][Sar][Sar][Sar][Sar][Sar][Sar]H[dD][Gly(cPent)]PC[Aib]WG[Aib]FWCP[Tle]NR[Aib][dD]C (linker 16-23-30 via TBMB) [Compound 275], the inhibitory constant (Ki) was found to be 15.9 nM.
To Ac-[Sar][Sar]H[dD]VPCP[1Nal]G[Aib]F[1Nal]CP[Tle]N[hArg]PGC (linker 7-14-21 via TBMB) [Compound 253] belongs 0.85 nM; to [βAla][Sar][Sar][Sar][Sar][Sar][Sar][Sar][Sar][Sar][Sar]H[dD]VPC[Aib]WGP[hArg]WCP[Tle]N[hArg]P[dD]C (linker 16-23-30 via TBMB) [Compound 247], 29.7 nM.
[βAla][Sar][Sar][Sar][Sar][Sar][Sar][Sar][Sar][Sar][Sar]H[dD]VPCPWG[Aib]F[1Nal]CP[Tle]N[hArg]P[dD]C (linker 16-23-30 via TBMB) [Compound 269] showed a Ki of 1.11 nM.
To {Ac-βAla}-[Sar][Sar][Sar][Sar][Sar][Sar][Sar][Sar][Sar][Sar]H[dD]VPCP[1Nal]G[Aib]F[1Nal]CP[Tle]NR[Aib][dD]C (linker 15-22-29 via TBMB) [Compound 260] belongs 0.75 nM; to [βAla][Sar][Sar][Sar][Sar][Sar][Sar][Sar][Sar][Sar][Sar]H[dD]VPCP[1Nal]G[Aib][hArg][1Nal]CP[Tle]NR[Aib][dD]C (linker 16-23-30 via TBMB) [Compound 250], 1.48 nM; to [βAla][Sar][Sar][Sar][Sar][Sar][Sar][Sar][Sar][Sar][Sar]H[dD]VPC[Aib][1Nal]G[Aib]F[1Nal]CP[Tle]N[hArg]PGC (linker 16-23-30 via TBMB) [Compound 235], 2.58 nM.
As for [βAla][Sar][Sar][Sar][Sar][Sar][Sar][Sar][Sar][Sar][Sar]H[dD]VPC[Aib][1Nal]G[Aib]F[1Nal]CP[Tle]NRPGC (linker 16-23-30 via TBMB) [Compound 234], the figure is 3.94 nM.
The molecule [βAla][Sar][Sar][Sar][Sar][Sar][Sar][Sar][Sar][Sar][Sar]H[dD][Gly(cPent)]TCP[1Nal]G[Aib]F[1Nal]CP[Tle]NR[Aib]GC (linker 16-23-30 via TBMB) [Compound 279] came in with a Ki of 0.59 nM.
Take [βAla][Sar][Sar][Sar][Sar][Sar][Sar][Sar][Sar][Sar][Sar]H[dD]VPCP[1Nal]G[Aib]F[1Nal]CP[Tle]N[hArg]PGC (linker 16-23-30 via TBMB) [Compound 257]: the Ki stood at 1.07 nM.
Molecule {Ac-βAla}-[Sar][Sar][Sar][Sar][Sar][Sar][Sar][Sar][Sar][Sar]H[dD]VPCP[1Nal]G[Aib]F[1Nal]CP[Tle]NR[Aib]GC (linker 15-22-29 via TBMB) [Compound 258] showed a Ki of 0.54 nM.
{Ac-βAla}-[Sar][Sar][Sar][Sar][Sar][Sar][Sar][Sar][Sar][Sar]H[dD][Gly(cPent)]PCP[1Nal]G[Aib]F[1Nal]CP[Tle]N[hArg]P[dD]C (linker 15-22-29 via TBMB) [Compound 277] returned a Ki of 0.53 nM.
To {Ac-βAla}-[Sar][Sar][Sar][Sar][Sar][Sar][Sar][Sar][Sar][Sar]H[dD][Gly(cPent)]PC[Aib][1Nal]G[Aib]F[1Nal]CP[Tle]NR[Aib][dD]C (linker 15-22-29 via TBMB) [Compound 274] belongs 2.28 nM; to Ac-[Sar][Sar]H[dD]VTCP[1Nal]G[Aib]F[1Nal]CP[Tle]NR[Aib]GC (linker 7-14-21 via TBMB) [Compound 285], 1.21 nM; to [βAla][Sar][Sar][Sar][Sar][Sar][Sar][Sar][Sar][Sar][Sar]H[dD]VPC[Aib]WGP[hArg]WCP[Tle]N[hArg]P[dD]C (linker 16-23-30 via TBMB) [Compound 246], 31.4 nM.
